Values quoted from earlier work, collected in paper PMC8799529.

Molecular target: p38 MAPK (Homo sapiens) (UniProt Q16539)
Sequence of UniProt Q16539 (Q16539 2-360): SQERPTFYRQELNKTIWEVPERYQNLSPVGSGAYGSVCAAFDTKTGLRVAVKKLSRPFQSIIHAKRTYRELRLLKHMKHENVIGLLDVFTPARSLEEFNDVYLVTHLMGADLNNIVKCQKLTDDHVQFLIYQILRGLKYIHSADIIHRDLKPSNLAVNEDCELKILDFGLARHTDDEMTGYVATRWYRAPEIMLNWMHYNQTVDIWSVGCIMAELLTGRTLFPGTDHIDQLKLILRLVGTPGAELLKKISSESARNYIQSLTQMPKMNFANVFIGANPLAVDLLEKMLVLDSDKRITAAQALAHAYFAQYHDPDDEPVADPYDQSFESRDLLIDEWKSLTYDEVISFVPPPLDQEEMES

Kd: 2.5 nM
Substance: MK2 (from UniProt P49137)
